Reference: paper doi:10.1101/2025.08.05.667158

Tests used:
[1] = molecular target: human IR-A ECD construct (residues 1-917) (human); assay: cryo-EM structure
[2] = molecular target: IR-A in cell membranes of human IM-9 lymphocytes (human (endogenous in IM-9)) (UniProt P06213); assay: radioligand binding

## S661 peptide
[1]
  stoichiometry N (per IR-ECD dimer): 2
[2]
  Kd: 2.6 nM
